# In patent publication EP3370777B1:
# Target: His-tagged eukaryotic Elongation Factor 2 (eEF2) expressed in S. cerevisiae
# Assay: cell-based or functional assay
substance,measurement,value
"recombinant Exotoxin A (SEQ ID NO: 4), expressed in E. coli NiCo21(DE3) as His-tagged SUMO fusion, SUMO-tag removed (enzyme)","ADP-ribosylation activity EC50 [µg/µl] (Example 1, soluble fraction)",0.6 µg/µL
same,"ADP-ribosylation activity EC50 [µg/µl] (Example 2, method of the invention)",0.52 µg/µL
